Assays:
[1] = tested on: β3/293 cells (HEK293 cells transfected with human β3 integrin expression vector); experiment: Adhesion of β3/293 cells to βig-h3 and its inhibition; assay type: cell-based; conditions: plate coated with βig-h3
Description: To construct a human β3 integrin expression vector, RT-PCR was performed using a human placenta poly(A)^+ RNA as a template, thereby generating a 2.4-kb β3 cDNA (Chandrika, S. K. et al., J. Biol. Chem., 272:16390-16397, 1997). The amplified β3 cDNA was digested with HindIII/XbaI, and then cloned into the pcDNA3 vector (Invitrogen). The resulting vector was named “β3/pcDNA3”. Then, 1 μg of the β3/pcDNA3 vector was introduced into HEK293 cells (ATCC, catalog No. CRL 1573) using lipofectamin (Gibco). A control was introduced with a pcDNA3 vector containing no human β3 cDNA. Since all the vectors contain a G418 selection marker, the stable transfected cells were screened using 1 mg/ml of G418. The cell transfected with the β3/pcDNA3 vector was named “β3/293”, and the cell transfected with the pcDNA3 vector (control) was named “pc/293”. Each of the screened transfectants was incubated in DMEM (Dulbecco's Modified Eagle Medium) containing 10% FBS, streptomycin and penicillin. Then, cell adhesion assay was performed in the same manner as in Example 2.
In the present invention, to further confirm that βig-h3 mediates endothelial cell adhesion through the αvβ3 integrin, cell adhesion assay using antibodies that block the function of integrins was performed in the same manner as in Example 3-1. […]

HUVECs = HUVECs migration assay in transwell plate coated with βig-h3; assay type: cell-based, human; conditions: 10 μg/ml βig-h3 His-β-b coated; 6-8 hours; data not shown
Description: Firstly, to examine whether βig-h3 is involved in the migration of endothelial cells, the present inventors performed cell migration assay. The cell migration assay was performed in a transwell plate (8 μm pore size, Costar, Cambridge, Mass.). The undersurface of the membrane was coated with the recombinant βig-h3 His-β-b protein (10 μg/ml) prepared in Example 1 at 4° C., and then, blocked for 1 hour at room temperature with PBS buffer containing 2% BSA. Meanwhile, HUVECs were added with an anti-αvβ3 antibody (LM609) or an anti-αvβ5 antibody (P1F6) and preincubated at 37° C. for 30 minutes. A control was added with mouse IgG. Then, the HUVECs preincubated with the antibody were suspended in medium at a density of 3×10^5 cells/ml, and 0.1 ml of the cell suspension was added to the upper compartment of the filter. The cells were allowed to migrate at 37° C. for 6-8 hours.
Migration was terminated by removing the cells from the upper compartment of the filter with a cotton swab. The filters were fixed with 8% glutaraldehyde and stained with crystal violet. The extent of cell migration was determined by light microscope, and within each well, cell counting was done in nine randomly selected fields HPF (Microscopic high power fields, ×200).
Then, the present inventors examined whether the migration of endothelial cells is inhibited by the YH18 synthetic peptide. […]

B1: βig-h3: recombinant human βig-h3 protein that expresses all of four fas-1 domains; biotinylated form used in binding assay (protein)
chain: YQRKICGKSTVISYECCPGYEKVPGEKGCPAALPLSNLYETLGVVGSTTTQLYTDRTEKLRPEMEGPGSFTIFAPSNEAWASLPAEVLDSLVSNVNIELLNALRYHMVGRRVLTDELKHGMTLTSMYQNSNIQIHHYPNGIVTVNCARLLKADHHATNGVVHLIDKVISTITNNIQQIIEIEDTFETLRAAVAASGLNTMLEGNGQYTLLAPTNEAFEKIPSETLNRILGDPEALRDLLNNHILKSAMCAEAIVAGLSVETLEGTTLEVGCSGDMLTINGKAIISNKDILATNGVIHYIDELLIPDSAKTLFELAAESDVSTAIDLFRQAGLGNHLSGSERLTLLAPLNSVFKDGTPPIDAHTRNLLRNHIIKDQLASKYLYHGQTLETLGGKKLRVFVYRNSLCIENSCIAAHDKRGRYGTLFTMDRVLTPPMGTVMDVLKGDNRFSMLVAAIQSAGLTETLNREGVYTVFAPTNEAFRALPPRERSRLLGDAKELANILKYHIGDEILVSGGIGALVRLKSLQGDKLEVSLKNNVVSVNKEPVAEPDIMATNGVVHVITNVLQPPANRPQERGDELADSALEI
- adhesion of β3/293 cells to βig-h3 [1]: strongly adhered
- migration of HUVECs in transwells whose undersurface was coated with βig-h3 (HUVECs): enhanced
